Experiment [1] has as its system BAF complexes. Nature of the experiment: BAF subunit protein levels by immunoblotting in Ewing sarcoma cells. It counts as cell-based, human. The settings on record: CN04 treatment plus MG-132. (A western blot detects proteins with antibodies after separation by electrophoresis.)
Text: Immunoblotting. […] The following antibodies were used: rabbit polyclonal anti-FLI1 (ab15289, Abcam); mouse monoclonal anti-FLAG M2 (F1804, MilliporeSigma): rabbit monoclonal anti-NELL2 (ab181376, Abcam); goat polyclonal anti-PGK1 (sc-17943, Santa Cruz Biotechnology); rabbit polyclonal anti-Robo3 (LS-C345713, LSBio); goat polyclonal anti-Robo3 (PA5-18714, Thermo Fisher Scientific); mouse monoclonal anti-cdc42 (ACD03, Cytoskeleton); rabbit polyclonal anti-Rac1/2/3 (2465, Cell Signaling Technologies); rabbit polyclonal anti-Rho A (2117, Cell Signaling Technologies); goat polyclonal anti-BRG1 (A303-877A, Bethyl Laboratories); rabbit monoclonal anti-BRG1 (49360, Cell Signaling Technologies); rabbit polyclonal anti-BRM (A301-014A-T, Bethyl Laboratories); mouse monoclonal anti-ARID1A/BAF250) (sc-32761, Santa Cruz Biotechnology); rabbit polyclonal anti-BAF170 (A301-039A-T, Bethyl Laboratories); rabbit monoclonal anti-BAF155 (11956, Cell Signaling Technologies); rabbit polyclonal anti-BAF60B (A301-596A-T, Bethyl Laboratories); rabbit polyclonal anti-BAF57 (A300-810A-T, Bethyl Laboratories); rabbit polyclonal anti-BAF53A (A301-391A-T, Bethyl Laboratories); rabbit monoclonal anti-BAF47 (8745, Cell Signaling Technologies); rabbit polyclonal anti-BRD9 (A303-781A-T, Bethyl Laboratories); rabbit monoclonal anti-SS18 (21792, Cell Signaling Technologies); rabbit monoclonal anti-CD133 (64326, Cell Signaling Technologies); rabbit polyclonal anti-srGAP1 (A301-286A-T, Bethyl Laboratories); rabbit polyclonal anti-srGAP2 (GTX130797, GeneTex); mouse monoclonal anti-tubulin (DMIA, Thermo Fisher Scientific); rabbit polyclonal anti-β-actin (4967, Cell Signaling Technologies); mouse monoclonal anti-Rpb1 (2629, Cell Signaling Technologies); rabbit monoclonal anti-cdc6 (3387, Cell Signaling Technologies); rabbit monoclonal anti-caveolin-1 (3267, Cell Signaling Technologies); rabbit polyclonal anti-phospho-caveolin-1 (3251, Cell Signaling Technologies); rabbit monoclonal anti-Src (2123, Cell Signaling Technologies); rabbit monoclonal anti-phospho-Src Family (6943, Cell Signaling Technologies); and rabbit polyclonal anti-GDF6 (NBP1-91934, Novus Biologicals). The following HRP-conjugated secondary antibodies were used: goat anti-rabbit (7074) and goat anti-mouse (7076) (Cell Signaling Technologies); donkey anti-goat (A50)-201P, Bethyl Laboratories).
The subject of experiment [2] is CD133^low population. Nature of the experiment: Chemotherapeutic drug treatment of CD133high and CD133low populations. It counts as cell-based, human. The settings on record: for CD133low population after prolonged treatment: FIG. 4M. The protocol:
Flow cytometry. Cells were trypsinized, washed with FACS wash buffer (PBS, 0.5% BSA, 2 mM EDTA), and incubated with PE-conjugated human CD133/1 antibody (clone AC133, Miltenyi Biotec; 1:100 in FACS wash buffer) for 20 minutes at 4° C. Cells were washed three times with FACS wash buffer and the CD133^high and CD133^low cell populations were sorted by using BD FACSAria (Becton Dickinson). The FACSDiva 6.1.3 software (Becton Dickinson) was used for sample analysis.

For experiment [3], the target named is T1, Robo3 (Homo sapiens, UniProt Q96MS0).
T1 construct: endogenous in cells; host or cells: A-673 Ewing sarcoma cells
T1 sequence (Q96MS0 21-1386): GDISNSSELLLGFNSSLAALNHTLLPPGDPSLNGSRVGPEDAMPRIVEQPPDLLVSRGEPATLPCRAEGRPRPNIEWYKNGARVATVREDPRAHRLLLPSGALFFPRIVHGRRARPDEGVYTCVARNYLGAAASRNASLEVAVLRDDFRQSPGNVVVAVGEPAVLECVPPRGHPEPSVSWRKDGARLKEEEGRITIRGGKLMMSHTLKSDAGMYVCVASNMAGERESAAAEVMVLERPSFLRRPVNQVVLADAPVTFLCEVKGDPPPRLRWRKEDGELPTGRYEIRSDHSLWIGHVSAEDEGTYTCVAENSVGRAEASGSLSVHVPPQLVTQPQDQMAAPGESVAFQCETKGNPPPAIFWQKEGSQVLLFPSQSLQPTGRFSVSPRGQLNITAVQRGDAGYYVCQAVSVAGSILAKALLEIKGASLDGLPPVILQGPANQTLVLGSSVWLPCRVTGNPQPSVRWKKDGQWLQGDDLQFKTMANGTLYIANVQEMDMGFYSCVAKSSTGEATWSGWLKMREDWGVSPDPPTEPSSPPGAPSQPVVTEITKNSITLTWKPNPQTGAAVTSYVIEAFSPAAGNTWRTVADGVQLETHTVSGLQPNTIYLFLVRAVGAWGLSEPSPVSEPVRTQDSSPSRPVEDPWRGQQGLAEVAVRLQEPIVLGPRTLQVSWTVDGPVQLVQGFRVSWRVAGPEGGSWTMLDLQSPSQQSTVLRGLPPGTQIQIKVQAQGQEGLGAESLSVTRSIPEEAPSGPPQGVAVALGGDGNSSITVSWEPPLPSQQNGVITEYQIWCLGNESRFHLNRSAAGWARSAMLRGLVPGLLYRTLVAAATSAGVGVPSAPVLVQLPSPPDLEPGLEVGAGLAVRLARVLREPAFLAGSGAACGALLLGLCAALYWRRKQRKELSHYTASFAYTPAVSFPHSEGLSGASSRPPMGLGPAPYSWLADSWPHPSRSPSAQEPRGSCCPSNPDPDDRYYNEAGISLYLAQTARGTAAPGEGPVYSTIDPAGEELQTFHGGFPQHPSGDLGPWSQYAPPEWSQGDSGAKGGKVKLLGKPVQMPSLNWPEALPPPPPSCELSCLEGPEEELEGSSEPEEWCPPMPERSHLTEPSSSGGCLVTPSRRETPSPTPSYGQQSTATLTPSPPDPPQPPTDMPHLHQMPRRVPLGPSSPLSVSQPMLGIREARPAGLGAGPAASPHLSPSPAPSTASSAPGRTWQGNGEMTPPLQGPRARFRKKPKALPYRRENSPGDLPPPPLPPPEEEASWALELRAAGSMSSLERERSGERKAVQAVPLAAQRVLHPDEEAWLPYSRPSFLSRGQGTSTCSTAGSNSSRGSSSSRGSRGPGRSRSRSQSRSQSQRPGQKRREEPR
The experiment is described as follows: NELL2-FLAG ligand-binding assay in A-673 cells. The settings on record: FIG. 2B. As to the method:
Robo3 expression was readily detectable in Ewing sarcoma tumors and cell lines, but undetectable in mesenchymal stem cells (FIG. 2A). The role of Robo3 as the NELL2 receptor in Ewing sarcoma was tested using ligand-binding assays (FIG. 2B). C-terminally FLAG-tagged NELL2 was produced from transfected 293T/HEK293T cells and was incubated with A-673 cells that were transfected with Robo3 siRNA pool or control siRNA pool. After washing the cells to remove unbound NELL2-FLAG, a whole cell lysate was prepared and analyzed by immunoblotting to assess the binding of NELL2-FLAG to A-673 cells. […] The specificity of the NELL2-Robo3 interaction was further confirmed by ligand-binding assays using alkaline phosphatase-fused NELL2 (NELL2-AP) (FIG. 2C). NELL2-AP bound to COS cells expressing Robo3, but not Robo1 or vector (FIG. 2C).

Experiment [4] deals with A673 Ewing sarcoma cells. The experiment is described as follows: Growth inhibition screen of anti-NELL2 hybridoma clones / mAbs on Ewing sarcoma cell proliferation. It counts as cell-based, human. The settings on record: mAbs used at 1 μg/ml, FIG. 6. The protocol:
Cell proliferation and xenograft tumorigenicity assays. Anchorage-dependent cell proliferation was assessed by IncuCyte live-cell imaging system (Essen BioScience). The IncuCyte system monitors cell proliferation by analyzing the occupied area (% confluence) of cell images over time. At least four fields from four wells were assayed for each experimental condition. The cell seeding density was 2000 cells per well in a 96-well plate. For each assay, biological replicates were performed to confirm the reproducibility of results. Anchorage-independent cell proliferation was evaluated by soft agar colony formation assays. A-673 cells were infected with lentiviruses expressing shRNAs against NELL2 or scrambled shRNA and were selected with 2 μg/ml puromycin. Four days after infection, 4×10^3 cells were plated in soft agar. The soft agar cultures were composed of two layers; a base layer [4 ml in a 60-mm dish; DMEM/10% fetal bovine serum/0.6% noble agar (A5431, MilliporeSigma)/penicillin/streptomycin] and a cell layer (2 ml in a 60-mm dish; DMEM/10% fetal bovine serum/0.3% noble agar/penicillin/streptomycin). Colonies were grown for three weeks and counted. Colonies (>50 cells) were scored by randomly counting 10 fields per dish. […] Tumor growth was monitored weekly using a caliper. […]

In experiment [5] the target is T2, NELL2 EGF-like repeats (residue 397-637) (Homo sapiens (Human), UniProt Q99435 397-637).
T2 construct: also called EGF-like repeat domain of NELL2; immunogen
The experiment is described as follows: immunogen ELISA of hybridoma clones. On the technique in general: In an ELISA, binding on a coated surface is turned into a signal by an enzyme label.

Where a SMILES comes first, the peptide text is derived from it. The star is where a group is joined. Cbz = O=C(OCc1ccccc1)*

T2 sequence (Q99435 397-637 limits assumed): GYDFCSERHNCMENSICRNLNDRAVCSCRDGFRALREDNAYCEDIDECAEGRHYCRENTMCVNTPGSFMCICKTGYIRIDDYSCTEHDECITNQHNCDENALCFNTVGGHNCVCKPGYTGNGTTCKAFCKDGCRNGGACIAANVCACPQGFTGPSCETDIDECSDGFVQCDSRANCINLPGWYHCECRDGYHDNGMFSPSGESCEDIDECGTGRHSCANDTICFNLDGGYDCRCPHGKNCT

Turning to `CC(C)C[C@@H](C=O)NC(=O)[C@H](CC(C)C)NC(=O)[C@H](CC(C)C)NC(=O)OCc1ccccc1` [MG-132, reference compound] (Cbz-Leu-Leu-Leu-aldehyde), the “Protein levels of BRG1, BAF250A, BAF155, and BAF47 reduced by CN04, effect of proteasome inhibitor” value in experiment [1] is given as “restored”. For `COc1cccc2c1C(=O)c1c(O)c3c(c(O)c1C2=O)C[C@@](O)(C(=O)CO)C[C@@H]3O[C@H]1C[C@H](N)[C@H](O)[C@H](C)O1` [doxorubicin], in experiment [2], the “Resistance of CD133low versus CD133high population to the drug” value is “more resistant” and the “CD133low population after prolonged treatment” value was “enriched the CD133^low population”. As to “NELL2-FLAG: C-terminally FLAG-tagged NELL2 produced from transfected 293T/HEK293T cells”, in experiment [3], the “Binding to control siRNA transfected A-673 cells” value is “bound”. In addition, in experiment [3] (Robo3 siRNA pool), the “Binding to Robo3-silenced A-673 cells” value is “abolished”. Take `N.N.[Cl][Pt][Cl]` [cisplatin]: in experiment [2], the “Resistance of CD133low versus CD133high population to the drug” value was “more resistant” and the “CD133low population after prolonged treatment” value is listed as “enriched the CD133^low population”.

B1: anti-NELL2 mouse monoclonal antibody clone #17 (antibody, V domains shown)
VH: DVQLVESGGGLVQPGGSRKLSCAASGFTFSSFGMHWVRQAPEKGLEWVAYVSGGSSTIYYADTVKGRFTISRDNPKNTLFLQMTSLRSEDTAMYYCARSFSLLRLPVYFDFWGQGTTLTVSS
VL: DIQMTQSPSSLSASLGERVSLTCRASQEISDYLTWLQQKPDGTIKRLIYAASTLDSGVPKRFSGSRSGSDYSLTISSLESEDFADYYCLQYASFPLTFGAGTKLELK
notes: Mouse hybridoma mAb; also called NELL2 mAb
Turning to B1, the “Ewing sarcoma cell proliferation” value in experiment [4] is “strongly inhibited”. Also, the binding result in experiment [5] is listed as “binds”.

B2: anti-NELL2 mouse monoclonal antibody clone #15 (antibody, V domains shown)
VH: EVKLVESGGGLVQPGGSLKLSCATSGFTFSDYYLYWVRQTPEKRLEWVAYISNGGDITYYPDTVKGRFAISRDNAKNTLYLQMSRLKSEDTAMYYCARGRVRSYYGNPDAMDFWGQGTSVTVSS
VL: DVVMTQTPLSLPVSLGDQASISCRSSQSLVHSNGNTYLHWYLQKPGQSPKLLIYKVSKRFSGVPDRFSGSGSGTDFTLKITRVEAEDLGVYFCSQSIYVPHTFGGGTKLEIK
notes: as for B1
Take B2: in experiment [4], the “Ewing sarcoma cell proliferation” value is “strongly inhibited”. The binding result in experiment [5] is recorded as “binds”.
